We go through two molecules from PMC8596017, “Evolutionary mode for the functional preservation of fast-evolving Drosophila telomere capping proteins” (Open Biology, 2021).

In data set [1] the test system is Ver (wild type);Moi (Drosophila melanogaster;Drosophila melanogaster). Description: BLI. The conditions noted are these: PBS + 0.05% Tween 20, BLI and EMSA: PBS (137 mM NaCl, 2.7 mM KCl, 10 mM Na2HPO4, 1.8 mM KH2PO4) + 0.05% Tween 20, EMSA 15 min at room temperature, 20 fmol ssDNA, pull-down: 4 C …. (Mobility shift assays separate free from complexed probe on a gel.)

For data set [2] the test system is unchanged. Description: pull-down. The conditions noted are these: reference; BLI and EMSA: PBS (137 mM NaCl, 2.7 mM KCl, 10 mM Na2HPO4, 1.8 mM KH2PO4) + 0.05% Tween 20, EMSA 15 min at room temperature, 20 fmol ssDNA; pull-down: 4 C ….
The target of data set [3] is T1, Verrocchio (Ver), wild type, Flag-tagged (D. melanogaster, UniProt Q9VTZ2 1-214).
T1 construct: Verrocchio (Ver), Terminin subunit of D. melanogaster; also called wild-type Ver; source: Arctic express cells (DE3), co-expressed with Moi-HA from a bicistronic pET vector; cell lysate, heparin-sepharose fractions, anti-FLAG M2 eluate; not shown: Flag, N-terminal, kept
T1 sequence (looked up): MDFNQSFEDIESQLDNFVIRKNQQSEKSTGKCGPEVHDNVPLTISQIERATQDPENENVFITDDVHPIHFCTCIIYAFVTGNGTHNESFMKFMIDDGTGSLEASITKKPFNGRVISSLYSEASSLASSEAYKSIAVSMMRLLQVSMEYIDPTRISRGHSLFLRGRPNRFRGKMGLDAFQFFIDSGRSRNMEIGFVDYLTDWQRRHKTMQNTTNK
Description: co-IP; Flag immune-affinity purification: heparin-sepharose fractions loaded on anti-FLAG M2 affinity matrix, washed with buffer I (25 mM Tris HCl pH 7.5, 100 mM NaCl, 1 mM CaCl2, 1 mM MgCl2) or PBS, eluted with 3× Flag peptide. The conditions noted are these: partners not purified.

Data set [4] concerns the target M3-Ver (Ver with the putative DNA binding surface, Group 3, partially deleted), Flag-tagged (D. melanogaster) (UniProt Q9VTZ2). Described as above.
Data set [5] deals with M1-Ver (Ver with the Group 1 uncharacterized helices deleted), Flag-tagged (D. melanogaster) (UniProt Q9VTZ2). The description is as above.

Turning to 80 nt ssDNA, the Kd (as a rule, a measure of binding affinity in units of concentration) in data set [1] (Kd1, heterogeneous ligand (2:1) model) worked out at 129 nM; in data set [1] (Kd2, heterogeneous ligand (2:1) model), 1570 nM. Moreover, the binding signal (fraction of Moi eluted from ssDNA) in data set [2] stood at 1.

B1: Modigliani (Moi), HA-tagged at the C-terminus (natural protein, D. melanogaster, UniProt B7Z0L8 1-178, looked up)
chain: MSLVPEASTSRAPKYCYFFKTLLVEELELETSYHNLHYGQCALIGRLAFKANQYRLENVRVKCLPKKYSLGEGTVSLLILGLTHDKVVENRVSTGRYCIVRGEVVLHNVQHPKGAKLTAGGVYDKINSLSNDPLAQKQYLSALLATYRPAIDLWYIQVIDRAEDLLTRRLEMRSLIEK
notes: DTL/Modigliani (Moi), Terminin subunit of D. melanogaster; also called DTL; source: Arctic express cells (DE3), co-expressed with Ver from a bicistronic pET vector; cell lysate, heparin-sepharose fractions, anti-FLAG M2 eluate; not shown: HA, C-terminal, kept
Turning to B1, the stoichiometry N (in general, the number of molecules, sites or subunits per partner or assembly) in data set [3] was ~1; in data set [4], 1; in data set [5] it was 1.
